From the supplement of paper PMC9170038

How the values were obtained:
[1] = system: MS2 coat protein; assay: apparent KD of MS2 coat protein; designed switch direction (-1 OFF switch, 1 ON switch): -1; higher = weaker reporter binding; conditions: Eterna round: R98
Experimental: (§1)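 RNA-MaP: designed FMN/MS2 RNA switches (84 nt design region) are transcribed on-chip within common flanks and titrated with SNAP-549-labelled MS2 coat protein (about 1-3000 nM) in 100 mM Tris pH 7.5, 80 mM KCl, 4 mM MgCl2, without or with 200 uM FMN. Median apparent KD per design; activation ratio = KD,OFF / KD,ON.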

[2] = system: MS2 coat protein; assay: apparent KD of MS2 coat protein; designed switch direction (-1 OFF switch, 1 ON switch): 1; higher = weaker reporter binding; conditions: Eterna round: R98
Experimental: as §1

## AAAAUAAAGGCAGGAUAUACAUGAAUAAAUAAAAUAAAAUAAAAUAAAACAUGAGGAUCACCCAUGUAGAAGGGCCAAAAUAAA [LRO021_Exclusion NG 2]
[1]; input ligand: FMN 200 uM
  apparent KD of MS2 coat protein: 178 nM
[1]; input ligand: none
  apparent KD of MS2 coat protein: 71.5 nM

## AAAACAUGAGGAUCACCCAUGUAAUGAUCGGUUAAUAGAAGUGAGGAUAUGCUUAAAAUAAGGUAGCAGAAGGCACUGGGUACA [JR_SSNG3_Sub041]
[2]; input ligand: FMN 200 uM
  apparent KD of MS2 coat protein: 31.3 nM
[2]; input ligand: none
  apparent KD of MS2 coat protein: 28.1 nM

## CUCGUUGUCACAGGAUAUGCCGCCGGACAUGAGGAUCACCCAUGUACCCGCUUGAGAAAACUGCGGUAGAAGGGUGACUUAUAA [Erriisin]
[2]; input ligand: FMN 200 uM
  apparent KD of MS2 coat protein: 46 nM
[2]; input ligand: none
  apparent KD of MS2 coat protein: 110 nM

## AUGACAGGCAGAGCGCAACGGCGAACAUGAGGAUCACCCAUGUAGGAUAUGCUACACAAAGUGUAGCAGAAGGACAUGCGACGC [Ex NG2 #85]
[1]; input ligand: FMN 200 uM
  apparent KD of MS2 coat protein: 117 nM
[1]; input ligand: none
  apparent KD of MS2 coat protein: 25.7 nM

## UUAUAAAAUAUAGGAUAUGGAAACAUGAGGAUCACCCAUGUAUGAUAAGAUAAAUUAUGAUAUAGCCAGAAGGAUACAAUAUAA [LRO010_SS NG 2]
[2]; input ligand: FMN 200 uM
  apparent KD of MS2 coat protein: 35.4 nM
[2]; input ligand: none
  apparent KD of MS2 coat protein: 32.9 nM

## GCCAUCGUAUGAGGAUAUGGCACCGUUUCGGUGCCAGAAGGCAUGUCUUUUGACAUGAGGAUCACCCAUGUAGUUAAGAUGGCA [Pyrimidine booster 4]
[2]; input ligand: FMN 200 uM
  apparent KD of MS2 coat protein: 147 nM
[2]; input ligand: none
  apparent KD of MS2 coat protein: 637 nM

## CUAGCAUACCGAGGAUAUUCAUAUAAUAAAUAAACAUGAGGAUCACCCAUGUGGCGAAAGCCUAGGGAGAAGGCGGAAUGCUAU [salish99_SSNG2_r2_111]
[2]; input ligand: FMN 200 uM
  apparent KD of MS2 coat protein: 23.8 nM
[2]; input ligand: none
  apparent KD of MS2 coat protein: 210 nM

## UCGGUUUUCGCAGGAUAUGGAGGAUACUCCCACAUGAGCAUCAGCCAUGUCUGCAUGGAGGAAGGCCAGAAGGGCGAGAACCGA [United States 2 - Jieux - Same State NG 2]
[2]; input ligand: FMN 200 uM
  apparent KD of MS2 coat protein: 13.5 nM
[2]; input ligand: none
  apparent KD of MS2 coat protein: 31.6 nM

## GUAUGACAAAGUCAUACCGCUUUGACAUGAGGAUCACCCAUGUAGGAUAUAUUAAUCAAAGAUUAAUAGAAGGACAUGUUUCUG [Ex NG2 #68]
[1]; input ligand: FMN 200 uM
  apparent KD of MS2 coat protein: 175 nM
[1]; input ligand: none
  apparent KD of MS2 coat protein: 94.6 nM

## CGCUGUCGCGCAGGAUAUGCAUUGGAUUACAAUGCAGAAGGGCGAUUACAUGAGGAUCACCCAUGUGUAGACAGUGAAGAAGAG [SameState #31 NG1]
[2]; input ligand: FMN 200 uM
  apparent KD of MS2 coat protein: 28.4 nM
[2]; input ligand: none
  apparent KD of MS2 coat protein: 253 nM

## AGAACAUGAGGAUCACCCAUGUGAAGGUCGGCGUAUAAGGGUGAGGAUAUGCUUAAAAUAAGGAAGCAGAAGGUGCUUGGUGCG [SameState #79 NG3]
[2]; input ligand: FMN 200 uM
  apparent KD of MS2 coat protein: 102 nM
[2]; input ligand: none
  apparent KD of MS2 coat protein: 137 nM

## GGAGACCUCACAGGAUAUGCUGGACUUUGUCCAGCAGAAGGGUGUUUAACAUGAGGAUCACCCAUGUAGGUCUCCAAAUUUAAU [Denovo 60]
[2]; input ligand: FMN 200 uM
  apparent KD of MS2 coat protein: 46 nM
[2]; input ligand: none
  apparent KD of MS2 coat protein: 707 nM

## AUGCCGUGCAGAGCGCGACGGCGAACAUGAGGAUCACCCAUGUAGGAUAUACUACACAAAGUGUAGUAGAAGGACGUGCAACAA [Ex NG2 #97]
[1]; input ligand: FMN 200 uM
  apparent KD of MS2 coat protein: 38.1 nM
[1]; input ligand: none
  apparent KD of MS2 coat protein: 29.8 nM

## GGAUGACAAAGUCAUCCUUAACGAACAUGAGGAUCACCCAUGUAGGAUAUGCUACACAAAGUGUAGCAGAAGGACAUGUGCCUU [Mat - Exclusion NG 3 - JL Mod - D88]
[1]; input ligand: FMN 200 uM
  apparent KD of MS2 coat protein: 294 nM
[1]; input ligand: none
  apparent KD of MS2 coat protein: 32.9 nM

## GCUUGCGACGCAGGAUAUGGGUGCCUGAACACGAGGAUCACCCGUGUAGAGGAAGCGAAAAGCUCUCAGAAGGGCGUCGCAGGC [United States 6 - Jieux - Same State NG 2]
[2]; input ligand: FMN 200 uM
  apparent KD of MS2 coat protein: 19.8 nM
[2]; input ligand: none
  apparent KD of MS2 coat protein: 50.5 nM

## ACCGGCACUUACAUGAGGAUCACCCAUGUGUGCAAUCGGACACAGGAUAUCCAUGGUAAGUAUCGGGAGAAGGGUGGAAAGAAA [Reustion]
[2]; input ligand: FMN 200 uM
  apparent KD of MS2 coat protein: 258 nM
[2]; input ligand: none
  apparent KD of MS2 coat protein: 142 nM

## AAAAUAUAGGCAGGAUAUACAUGAAUAUAUAAUAUAAUAUAUAAUAUAACAUGAGGAUCACCCAUGUAGAAGGGCCAUAAUAAA [LRO028_Exclusion NG 2]
[1]; input ligand: FMN 200 uM
  apparent KD of MS2 coat protein: 72.7 nM
[1]; input ligand: none
  apparent KD of MS2 coat protein: 43.7 nM

## AAGCAAACAUGAGGAUCACCCAUGUAACUGCUUUUGGCGACACAGGAUAUACAGCGACAUUGGCGGUAGAAGGGUGAUUGAAGU [Araisleen]
[2]; input ligand: FMN 200 uM
  apparent KD of MS2 coat protein: 51.1 nM
[2]; input ligand: none
  apparent KD of MS2 coat protein: 22.2 nM

## UAUAUAAUAAGAGCUGGAAAACUCACAUGAGGAUCACCCAUGUAGGAUAUCAGCACGAUAAGUGCUGAGAAGGACAACCAGCUC [Denovo 73]
[1]; input ligand: FMN 200 uM
  apparent KD of MS2 coat protein: 17 nM
[1]; input ligand: none
  apparent KD of MS2 coat protein: 15.2 nM

## AAAACAUGAGGAUCACCCAUGUAAAGAUCGGUUAAUAAAAGUGAGGAUAUACAAAAUUUUAUAUAGUAGAAGGCACUGGGUACA [JR_SSNG3_Sub002]
[2]; input ligand: FMN 200 uM
  apparent KD of MS2 coat protein: 29.7 nM
[2]; input ligand: none
  apparent KD of MS2 coat protein: 28.3 nM

## GCCGUAAUAGCAGGAUAUGCUCCGGUUGCUCAUACAUGAGGAUCACCCAUGUCACGUGCGGUGGUGCAGAAGGGUUGAAGCGAU [Ausaso]
[2]; input ligand: FMN 200 uM
  apparent KD of MS2 coat protein: 122 nM
[2]; input ligand: none
  apparent KD of MS2 coat protein: 465 nM

## UCACUCACGUUAGGAUAUGGAUCGGAAAACGAUCCAGAAGGAACCUGCAAACACGAGGAUCACCCGUGUUCCAAUAACGAGUGA [SameSame 5 - Jieux - Same State NG 1]
[2]; input ligand: FMN 200 uM
  apparent KD of MS2 coat protein: 24.7 nM
[2]; input ligand: none
  apparent KD of MS2 coat protein: 20.3 nM

## CUAAUAUAGUGAGGAUAUGCACAGGAUCACCGUGUAGAAGGCAUCAGGUAGAAGGUGCAGAGGAUCACCCUGUAAGGAUAUACA [pwkr2 ssNG1 DX.5]
[2]; input ligand: FMN 200 uM
  apparent KD of MS2 coat protein: 102 nM
[2]; input ligand: none
  apparent KD of MS2 coat protein: 385 nM

## CUGGUGAUGUAAGGAUAUGCUGAGGAAUACUCAGCAGAAGGUACAUGAGGAUCACCCAUGUAAAUGAAAGAUAAUAAACACCAG [Excusion NG 1/16-B1]
[1]; input ligand: FMN 200 uM
  apparent KD of MS2 coat protein: 29.1 nM
[1]; input ligand: none
  apparent KD of MS2 coat protein: 14.5 nM

## AUCAAUCACAUAGGAUAUAGAAUAUUAUAUUUUUACAUGAGGAUCACCCAUGUUUUAUUGGGAUUCUAGAAGGAUGAGUAAUAA [JR_SSNG2_Sub055Nu]
[2]; input ligand: FMN 200 uM
  apparent KD of MS2 coat protein: 96.9 nM
[2]; input ligand: none
  apparent KD of MS2 coat protein: 147 nM

## UCGAAGAAGCAAGGAUAUCAAUAUUAGAAAAGAUAAACAUGAGGAUCACCCAUGUAAAUAUGGAGUGAGAAGGUGCAAUAAUUU [JR_SSNG2_Sub098]
[2]; input ligand: FMN 200 uM
  apparent KD of MS2 coat protein: 212 nM
[2]; input ligand: none
  apparent KD of MS2 coat protein: 557 nM

## GACGAAUUCUUAGGAUAUCGAGUGGAAUACACUCGAGAAGGAAGAUAUACCUGAGGAUCACCCAGGUAAAACUGGACGUCAAUA [Same State NG1 - A3C, U17G Submission 8D A68U]
[2]; input ligand: FMN 200 uM
  apparent KD of MS2 coat protein: 46.7 nM
[2]; input ligand: none
  apparent KD of MS2 coat protein: 193 nM

## GGUCCAUCAUGAGGAUAUGGCACCUUAUUUGUGCCAGAAGGCAUGUCAAUAGACAUGAGGAUCACCCAUGUAAUAAAUUGGACC [EliMod 3 - Jieux - Same State NG 1]
[2]; input ligand: FMN 200 uM
  apparent KD of MS2 coat protein: 54.1 nM
[2]; input ligand: none
  apparent KD of MS2 coat protein: 642 nM

## CGCUGUAAUGCAGGAUAUGCAUUGGAUUACAAUGCAGAAGGGCGAUUACAUGAGGAUCACCCAUGUAUAAACAGUGAAGAAGAG [Hyphema mod 5]
[2]; input ligand: FMN 200 uM
  apparent KD of MS2 coat protein: 26.9 nM
[2]; input ligand: none
  apparent KD of MS2 coat protein: 51.6 nM

## GUAGCAUACCGAGGAUAUUCAUACUGGAAACAGACAUGAGGAUCACCCAUGUGGCGAAAGCCUUGGGAGAAGGCGGAAUGCUAC [EliMod 9 - Jieux - Same State NG 2]
[2]; input ligand: FMN 200 uM
  apparent KD of MS2 coat protein: 42.4 nM
[2]; input ligand: none
  apparent KD of MS2 coat protein: 545 nM

## GCGUAAUUGAUCCUAUUUACCAACAUGAGGAUCACCCAUGUGCAGGAUAUGCUAAAGAUAGAUAAGCAGAAGGGCAAAUACCGC [JR_ExcNG3_Sub003]
[1]; input ligand: FMN 200 uM
  apparent KD of MS2 coat protein: 252 nM
[1]; input ligand: none
  apparent KD of MS2 coat protein: 67 nM

## UUUACAUGAGGAUCACCCAUGUUUUGAAAGAUUGGUUUAGGUGAGGAUAUACAUGAUAAUGAAUUGUAGAAGGCACUGGGUACA [JR_SSNG3_Sub029]
[2]; input ligand: FMN 200 uM
  apparent KD of MS2 coat protein: 29.6 nM
[2]; input ligand: none
  apparent KD of MS2 coat protein: 39.3 nM

## UUUGGGAGCACAGGAUAUGGCACCUCGACGGCGCCAGAAGGGUGAUUCUGUUGGUGGCCACAUGAGGAUCACCCAUGUGCCUCC [Inerinusce]
[2]; input ligand: FMN 200 uM
  apparent KD of MS2 coat protein: 44.7 nM
[2]; input ligand: none
  apparent KD of MS2 coat protein: 76 nM

## GUAGCAUACCGAGGAUAUUCAUACCAUAAAUGGACAUGAGGAUCACCCAUGUGGCGAAAGCCUUGGGAGAAGGCGGAAUGCUAC [EliMod 3 - Jieux - Same State NG 2]
[2]; input ligand: FMN 200 uM
  apparent KD of MS2 coat protein: 25.2 nM
[2]; input ligand: none
  apparent KD of MS2 coat protein: 673 nM

## ACAUGGAAGCGAGGAUAUGCGGCGGAAACGAACGCAGAAGGCGAAAAAAAAACUCGCAAAAACAUGAGGAUCACCCAUGUAAAA [AK-NGROCr2-ExNG1-4]
[1]; input ligand: FMN 200 uM
  apparent KD of MS2 coat protein: 34.8 nM
[1]; input ligand: none
  apparent KD of MS2 coat protein: 28.5 nM

## AAAUAAAAUAUAGGAUAUGGAAACAUGAGGAUCACCCAUGUAAAAUAAGAUAAAUAAUAAUAUAACCAGAAGGAUAAAAUAUAA [LRO003_SS NG 2]
[2]; input ligand: FMN 200 uM
  apparent KD of MS2 coat protein: 53.3 nM
[2]; input ligand: none
  apparent KD of MS2 coat protein: 30 nM

## GGUUGUUACGCAGGAUAUUGCCAACAGGCAGUAGGAUAUCCGAAAGGAGAAGGAUUGCCAACAGGCGAGAAGGGCGGGUUAACC [pwkr exNG2 2xF7 2FMN.10.6]
[1]; input ligand: FMN 200 uM
  apparent KD of MS2 coat protein: 50.6 nM
[1]; input ligand: none
  apparent KD of MS2 coat protein: 33.3 nM
